{"source": "patent US20240336661A1", "about": "“PEPTIDES DERIVED FROM RUMINOCOCCUS TORQUES” (University of Copenhagen, priority 2021, published 2024)", "molecules": {"B1": {"name": "RUCILP2: 87 amino acid irisin-like polypeptide cleaved from the Ruminococcus torques FNDC5-like protein RUMTOR_00181; recombinant, 6-His-tagged from E. coli (protein)", "chain": "APVDVKVSEITETSAKASWKNAADGKEAAGYNVYVDGVKLNKELLTEASCGLTNLKAETTYFVEVTAVDAAGNESVKSEKVTFKTLK", "modifications": "6-His tag; Ruminococcus torques", "notes": "87 amino acid irisin-like polypeptide cleaved from the Ruminococcus torques FNDC5-like protein RUMTOR_00181; recombinant, 6-His-tagged from E. coli"}}, "key": {"adipocytes": {"tested_on": "adipocytes", "assay": "Oil red O staining of lipids in adipocytes", "format": "cell-based, mouse", "experimental": "FIG. 10. […] Staining was performed on 10% formalin-fixed adipocytes according to the manufacturer's protocol.\nOil red O staining of lipids in adipocytes was performed according to the protocol below: • (1) Fixation—Remove the medium and gently wash the cells twice with PBS. Add formalin (10%) to the cells and incubate for 30 minutes • (2) Discard the formalin and wash the cells twice using sterile water. Add 60% isopropanol to the cells and incubate for 5 minutes • (3) Discard 60% isopropanol and cover the cells evenly with Oil Red O Working Solution. Rotate the plate or dish, and incubate for 15 minutes • (4) Discard the Oil Red O solution and wash the cells four times with water until no excess stain is seen • (5) Add hematoxylin to the cells and incubate for 1 minute. Discard hematoxylin and wash the cells four times with water • (6) Cover the cells with sterile water and view under microscope. Lipid droplets appear red, and nuclei appear blue"}, "Caco-2 cell line": {"tested_on": "Caco-2 cell line", "assay": "Intestinal barrier gene expression in Caco-2 cells (hypoxia/reoxygenation)", "format": "cell-based, human", "settings": "Caco-2, q-PCR", "experimental": "FIG. 13. […] The cells were treated with various doses of RUCILP2, and cells were collected for q-PCR quantification on indicated genes. For integrin inhibitor treatment, cells were treated with 10 uM of cRGDyK (Selleckchem, #S7844) for 10 minutes and washed with PBS before treated with RUCILP2. Data are presented as mean+/−SEM of one representative experiment done in technical triplicate. Statistical significance was determined by unpaired two-tailed Student's t-test. *, p<0.05 vs 0 nM RUCILP2.\nCommercially available Caco-2 cells (ATCC, #HTB-37) were seeded on 12-well plates under EMEM medium (Eagle's Minimum Essential Medium, ATCC, #30-2003), supplemented with 20% FBS (Fetal Bovine Serum, Fisher Scientific, #11550356) and 1% Penicillin-Streptomycin (Fisher Scientific, #11548876). Cell cultures were maintained in a humidified chamber with 5% CO2 at 37° C., and culture media were changed every 2-3 days.\nAt 70% confluence, to induce the hypoxia/reoxygenation (H/R) cell culture model, Caco-2 cells were cultured in EMEM medium (glucose and FBS free) and exposed to hypoxia conditions (94% N2, 5% C02 and 1% O2) at 37° C. for 120 minutes. Next, cells were treated for 24 hours with indicated concentrations of recombinant RUCILP2 or commercial recombinant irisin (Sigma, #SRP8039-10UG and Phoenix pharmaceuticals, #067-29A) or PBS immediately at the beginning of reoxygenation. […]"}, "[1]": {"assay": "Targeted proteomics (PRM) assay for RUCILP2 in human plasma", "settings": "measured from 6 individuals", "description": "FIG. 25. Representative chromatogram showing the presence of RUCILP2 in fasting human plasma. Parallel reaction monitoring (PRM) elution profile for y-ions for the unique tryptic RUCILP2 peptide (EAAGYNVYVDGVK) found in human plasma samples. Top panel is PRM trace for the fragmental ions (box a) of light peptide found in human plasma sample, bottom panel is PRM trace for the fragmental ions (box b) of 10.0 femtomole of heavy isotope labelled (Lys ^13C6, […]) synthetic peptide (internal standard, IS) spiked into fractionated human plasma samples. Retention times for each peptide are labeled on the x axis, and y axis represents the relative intensity for each fragmental ion peak. One milliliter of human plasma sample was depleted of albumin and immunoglobulin G following deglycosylation. Deglycosylated plasma was resolved by SDS-PAGE and molecular mass regions corresponding to completely deglycosylated RUCILP2 (10-15 kDa) was excised and subsequently digested in-gel overnight before LC-MS/MS detection. Based on comparative analysis on relative intensities of fragmental ions found in processed human plasma and fragmental ions found in plasma spiked with heavy isotope labelled internal standards, we estimate the inter-individual concentrations of RUCILP2 in human plasma vary between 10 and 100 pg/ml. […]"}, "fat cells": {"tested_on": "fat cells", "assay": "Cellular experiments with recombinant RUCILP2 summarised in Example 6 (fat and liver cells)", "format": "cell-based"}}, "data": [{"molecule": "B1", "values": [{"measurement": "lipid content in adipocytes (oil red O staining)", "setting": "adipocytes", "result": "reduces lipid content"}, {"measurement": "expression of genes involved in intestinal integration", "setting": "Caco-2 cell line", "result": "increases expression"}, {"measurement": "inter-individual concentration interval of RUCILP2 in human plasma", "setting": "[1]", "result": "10 to 100", "unit": "µg/mL"}, {"measurement": "leptin expression in fat cells", "setting": "fat cells", "result": "enhances"}, {"measurement": "expression of genes regulating lipogenesis", "setting": "fat cells; adipocytes and liver cells", "result": "inhibits expression"}]}]}
